Here are results for eleven molecules from patent publication US20120039897A1 (PHILIPPS UNIVERSITAET MARBURG, published 2012).

The labels stand for the following.
B1: recombinant Aβ(21-37) autoantibody 54/62 (antibody, V domains shown)
VH: EVQLVESGGGVVQPGGSLRLSCAASGFTFSSYWMSWVRQAPGKGLEWVASVKQDGSEKYYVDSVKGRFTISRDNAKNTLYLQMNSLRAEDTAVYYCARDGSSWYRDWFDPWGQGTLVTVS
VL: DIVLTQSPATLSLSPGERVTITCRASQSVNSYLAWYQQKPGQAPRLLIYGASTRATGIPDRFSGSGSGTDFTLTISRLEPEDFAVYYCQQYGSSQGTFGPGTKVDIKR
B2: recombinant Aβ(21-37) autoantibody 50/62 (antibody, V domains shown)
VH: B1 VH
VL: B1 VL with V3Q, L4M, V19A, T20A, I21L, T22S, S52A, T53S, D60A
B3: recombinant Aβ(21-37) autoantibody 55/68 (antibody, V domains shown)
VH: EVQLVESGGGVVQPGGSLRLSCAASGITFRSYDMSWVRQAPGKGLEWVASVKQDGSEKYYVDSVKGRFTVSRDNAKNTLYLQMNSLRAEDTAVYYCARDAGRWADLAFDIWGQGTLVTVS
VL: B1 VL with V3Q, L4M, A9G, V19A, T20A, I21L, T22S, N30S, G50A, T53I
B4: recombinant Aβ(21-37) autoantibody 50/67 (antibody, V domains shown)
VH: EVQLVESGGGVVQPGGSLRLSCAASGFTFRSYWMHWVRQAPGKGLEWVASVKQDGSEKYYVDSVKGRVTISLDTSKNQFSLKLSSVTAADTAVYYCARDGSSWYRDWFDPWGQGTLVSVS
VL: B1 VL with V3Q, L4M, V19A, T20A, I21L, T22S, S52A, T53S, D60A
B5: recombinant Aβ(21-37) autoantibody 47/56 (antibody, V domains shown)
VH: B1 VH with S30R, N74T, A75S, G100A
VL: B1 VL with D1E
B6: recombinant Aβ(21-37) autoantibody 55/69 (antibody, V domains shown)
VH: B1 VH with S30R, S35H, F68V, S71T, R72A, N74R
VL: B1 VL with V3Q, L4M, A9G, V19A, T20A, I21L, T22S, N30S, G50A, T53I
B7: recombinant Aβ(21-37) autoantibody 51/62 (antibody, V domains shown)
VH: B1 VH
VL: B1 VL with D1E, A25E, S28G, V29I, N30R, S31N
B8: recombinant Aβ(21-37) autoantibody 55/62 (antibody, V domains shown)
VH: B1 VH
VL: B1 VL with V3Q, L4M, A9G, V19A, T20A, I21L, T22S, N30S, G50A, T53I
B9: recombinant Aβ(21-37) autoantibody 50/68 (antibody, V domains shown)
VH: B3 VH
VL: B1 VL with V3Q, L4M, V19A, T20A, I21L, T22S, S52A, T53S, D60A
B10: recombinant Aβ(21-37) autoantibody 50/69 (antibody, V domains shown)
VH: B1 VH with S30R, S35H, F68V, S71T, R72A, N74R
VL: B1 VL with V3Q, L4M, V19A, T20A, I21L, T22S, S52A, T53S, D60A
B11: recombinant Aβ(21-37) autoantibody 54/68 (antibody, V domains shown)
VH: B3 VH
VL: B1 VL

Substitutions are numbered along the chain they refer to.

The target of one experiment is amyloid β peptide (antigen of the EIA of Table 2). Put plainly: ELISA (EIA), amyloid β peptide immobilised; legend: (-) indicates no binding. The procedure: (§1) All transfectants that expressed immunoglobulin efficiently were tested in an ELISA based on binding to amyloid β peptide. Biosensor data is ranked on a qualitative affinity binding assessment of the antibody to the cys-dimer peptide as described below.
amyloid β peptide (antigen of the EIA of Table 2), sequence (peptide, as listed by the source): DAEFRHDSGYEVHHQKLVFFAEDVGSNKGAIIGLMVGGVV
Aβ(1-40) monomer, Aβ(1-40) oligomer, Aβ(1-40 Cys) oligomer, and control plate using bovine serum albumin (Sigma) or Aprotinin (Sigma) were immobilized at 1 μg/ml in PBS (50 μl per well) on a Nunc Maxisorb 96-well plate overnight at 4° C. Wells were washed once with 350 μl Wash Buffer (1×PBS, 0.05% (v/v) Tween-20 (Sigma)). Wells were then blocked with Blocking Buffer (2% (w/v) Difco Skim milk (BD) in PBS, 50-150 μl per well) for 2 hours at room-temperature and washed once with 350 μl Wash Buffer.
On the technique in general: In an ELISA, binding on a coated surface is turned into a signal by an enzyme label.
For B1, the binding result is recorded as “no binding (tested: 100 µg/ml starting concentration)”.
Still for that read-out and setting: then B2, with “no binding (tested: 100 µg/ml starting concentration)”; and B3, with “no binding (tested: 100 µg/ml starting concentration)”; and B4, with “no binding (tested: 100 µg/ml starting concentration)”.
The same measure, in the same setting: for B5 the value was “no binding (tested: 100 µg/ml starting concentration)”.
Still for that read-out and setting: for B6 the value was “no binding (tested: 100 µg/ml starting concentration)”; for B7, “no binding (tested: 100 µg/ml starting concentration)”.
As to B8, the binding result is “no binding (tested: 100 µg/ml starting concentration)”.
The same measure, in the same setting: for B9 the value was “no binding (tested: 100 µg/ml starting concentration)”; for B10, “no binding (tested: 100 µg/ml starting concentration)”; for B11, “no binding (tested: 100 µg/ml starting concentration)”.

For a further experiment, the target named is T1, Aβ(1-40) monomer (Example 12A).
T1 construct: Sigma peptide, HFIP treated, kept in DMSO
The experiment is described as follows: Biacore, antibody captured on anti-human Ig chip, peptide injected. The procedure:
(§2) An anti-human immunoglobulin biosensor chip was prepared using a human antibody capture kit (Biacore, Sweden) as per manufacturer's instructions at flow rate of 5 μl/min with a 6 minute contact time during […] immobilisation. Approximately 10000 resonance units were achieved on all channels.
Background: Surface plasmon resonance follows binding to a sensor surface in real time, without labels.
Regarding B5, the binding result is on record as “no binding”.

The target in the next experiment is T2, Aβ(1-40 Cys) oligomer (Example 12A).
T2 construct: also called Aβ(1-40 Cys) dimer; cys-dimer peptide
T2 sequence (peptide, as listed by the source): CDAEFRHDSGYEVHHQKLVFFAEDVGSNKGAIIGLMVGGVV
The description is as above. The procedure:
as §2
Consider B5, for which the binding result is recorded as “no binding”.

For a further experiment the target is unchanged. The experiment is described as follows: Biacore, antibody captured on anti-human Ig chip, cys-dimer peptide injected; legend: (-) indicates no binding. As to the method:
as §1, §2
B1: the binding result was “no binding (tested: peptide 20-50 µg/ml)”.
Still for that read-out and setting: for B2 the value was “no binding (tested: peptide 20-50 µg/ml)”; for B3, “no binding (tested: peptide 20-50 µg/ml)”; for B4, “no binding (tested: peptide 20-50 µg/ml)”.
The same measure, in the same setting: then B6, with “no binding (tested: peptide 20-50 µg/ml)”.
On the same count and under the same terms, for B7 the value was “no binding (tested: peptide 20-50 µg/ml)”; for B8, “no binding (tested: peptide 20-50 µg/ml)”.
As for B9, the binding result is given as “no binding (tested: peptide 20-50 µg/ml)”.
On to B11, for which the binding result is recorded as “no binding (tested: peptide 20-50 µg/ml)”.
